Tested on: cultured PBMCs of the allergic donors
Assay: ELISPOT of IL-5 or IFNg production by cultured PBMCs of TG allergic donors in response to peptide
Assay type: cell-based, human
Details: for NTGA's containing at least one T cell epitope, Th+ (Col 2): NTGA number given = criterion met, TG allergic donors n=20; for No of PG+ & th+ peptides per NTGA / No of PP & Th+ peptides per NTGA: Table 6; for No of PG+ & th+ peptides per NTGA: PG+ peptides recognized by T cells of grass allergic donors (n=20); for No of PP & Th+ peptides per NTGA: PP peptides recognized by T cells of grass allergic donors (n=20); for # Th+: Table 7, peptides per NTGA recognized by T cells of grass allergic donors (n=20)
Excerpt: Table 1 indicates for each of the 397 PG+ peptides in which non-grass pollen species a matching peptide with either less than 3, less than 2 or zero mismatches are found. The number of TG grass allergic donors (n=20) with an in vitro T cell response to the TG peptide sequence is also shown.
A set of 93 proteins from Timothy grass (TG) pollen and the assembly of 822 peptides (15 mers) predicted to promiscuously bind HLA class II molecules shown in Table 9 and the immune reactivity in allergic donors have been reported in PCT application WO 2013/119863. […] Immune reactivity was determined by the production of IL-5 or IFNg from cultured PBMCs of the allergic donors in response to stimulation with a peptide and IL-5 and IFNg were measured by ELISPOT as described in Oseroff C et al, 2010.
In short, T cell immune reactivity was determined using PBMCs isolated from study participants and stored in liquid nitrogen until further use. For experimental testing, PBMCs were thawed and expanded in vitro with TG pollen extract (50 μg/mL) or the peptide pool ([…]). The TG extract and peptide pools had each been previously titrated to determine optimal stimulation concentrations.
Cytokine production by cultured PBMCs in response to antigen stimulation was measured by ELISPOT. Cells (1×10^5 cells/well) were plated and incubated with peptide (10 μg/mL), the peptide pool (5 μg/mL), or the TG extract (50 μg/mL). Phytohaemagglutinin (10 μg/mL) and medium alone were used as positive and negative controls, respectively. Samples were considered to produce a cytokine if 100 spot-forming cells (SFCs)/10^6 PBMCs were detected, with P .05 and a stimulation index of 2 or more. Criteria for individual peptides were the same except that a minimum of 20 SFCs were required for a sample to be counted as positive.
Table 3 lists the 397 PG+ peptides and indicates for each non-grass pollen species whether a matching peptide with either less than 3, less than 2 or zero mismatches could be detected. The immune reactivity of the TG peptide was assessed as the number of TG grass allergic donors (n=20) having in vitro T cell response against the TG peptide.

| Molecule | NTGA's containing at least one T cell epitope, Th+ (Col 2) | No of PG+ & th+ peptides per NTGA | No of PP & Th+ peptides per NTGA | # Th+ |
| --- | --- | --- | --- | --- |
| NTGA 30: Phl p wild type sequence, Table 2 (protein, Phleum Pratense) MAGGGVEDVYGEDRATEEQFVTPWSFSVASGHSLLRDPRHNKGLAFSEAERDAHYLRGLLPPAIVSQEHQEKKIMHNLRQYTVPLQRYIAMMDLQERNERLFYKLLIDNVEELLPVVYTPVVGEACQKYGSIYRRPQGLYISLKDKGKVLEVLKNWPERSIQVIVVTDGERILGLGDLGCQGMGIPVGKLSLYTALGGVRPSACLPITIDVGTNNQTLLDDEYYIGLKQRRATGEEYHELLQEFMNAVKQNYGEKVLVQFEDFANHNAFDLLAKYSKSHLVFNDDIQGTASVVLAGLLAALKVIGGGLADQTYLFLGAGEAGTGIAELIALEMSKHTDLPLDDCRKKIWLVDSKGLLVESRKESLQHFKKPFAHEHEPLTTLLEAVQSLKPTVLIGTSGVGKTFTQEVVEAMASFNEKPVIFSLSNPTSHSECTAEEAYTWTKGTAVFASGSPFDPVEYEGKTYVPGQSNNAYVFPGFGLGVVISGAIRVHDDMLLAASEALAEQVSQENFDKGLIFPPFTNIRKISANIAAKVAAKAYDLGLASRLPRPDDLVKYAESCMYTPLYRSYR | 30 | 1 | 1 | 0 |
| NTGA 26: Phl p wild type sequence, Table 2 (protein, Phleum Pratense) GVFTDKDKAAAHMKGGAKKVVISAPSKDAPMFVVGVNEDKYTSDVNIVSNASCTTNCLAPLAKIINDNFGIVEGLMTTVHSITATQKTVDGPSSKDWRGGRAASFNIIPSSTGAAKAVGKVLPELNGKLTGMSFRVPTVDVSVVDLTVRIEKAASYEDIKKAIKAASEGNLKGIMGYVEEDLVSTDFIGDSRSSIFDAKAGIALNDNFVKLVSWYDNEWGY | 26 | 1 | 1 | 0 |
| NTGA 29: Phl p wild type sequence, Table 2 (protein, Phleum Pratense) MASEKHFKYVILGGGVAAGYAAREFAKQGVQPGELAIISKESVAPYERPALSKGYLFPQNAARLPGFHTCVGSGGEKLLPEWYTEKGIELILSTEIVKADLASKTLTSAAGATFTYETLLIATGSSTIKLTDFGVQGAEANNILYLRDINDADKLVAAMQAKKDGKAVVVGGGYIGLELSAALKLNNFDVTMVYPEPWCMPRLFTAGIAHFYEGYYASKGINIVKGTVASGFDADANGDVAVVKLKDGRVLDANIVIVGVGGRPLTGLFKGQVDEEKGGLKTDTFFETSVAGVYAIGDVASFPMKLYNEPRRVEHVDHARKSAEQAVKAIKAKESGETVAEYDYLPYFYSRSFDIAWQFYGDNVGESVLFGDNDPAAAKAKFGTYWVKDGKVVGVFLEGGSADENQAIAKVARAQPLVAANLGELGKEGLDFAAKI | 29 | 1 | 1 | 0 |
| NTGA 32: Phl p wild type sequence, Table 2 (protein, Phleum Pratense) MAPIKIGINGFGRIGRLVARVALQCPDVELVAVNDPFITTDYMTYMFKYDTVHGQWKHHDVKVKDAKTLLFGEKEVAVFGCRNPEEIPWGAAGADYVVESTGVFTDKDKAAAHIKGGAKKVIISAPSKDAPMFVCGVNEKEYTSDITIVSNASCTTNCLAPLAKVINDRFGIVEGLMTTVHAMTATQKTVDGPSSKDWRGGRAASFNIIPSSTGAAKAVGKVLPVLNGKLTGMAFRVPTVDVSVVDLTVRLEKAATYEQIKAAIKEESEGNLKGILGYVDEDLVSTDFQGDSRSSIFDAKAGIALNDNFVKLVSWYDNEWGYSTRVVDLIRHIHATK | 32 | 4 | 4 | 0 |
| NTGA 11: Phl p wild type sequence, Table 2 (protein, Phleum Pratense) MATSWTLPDHPTLPKGKTVAVIVLDGWGEASADQYNCIHRAETPVMDSLKNGAPEKWTLVKAHGTAVGLPSDDDMGNSEVGHNALGAGRIFAQGAKLVDAALASGKIWEAEGFNYIKESFAEGTLHLIGLLSDGGVHSRLDQVQLLVKGASERGAKRIRLHILTDGRDVLDGSSVGFVETLENDLAQLREKGVDAQVASGGGRMYVTMDRYENDWDVVKRGWDAQVLGEAPYKFKSALEAVKTLRAEPKANDQYLPAFVIVDESGKSVGPIVDGDAVVTFNFRADRMVMLAKALEFADFDKFDRVRVPKIKYAGMLQYDGELKLPNKFLVSPPLIERTSGEYLVKNGVRTFACSETVKFGHVTFFWNGNRSGYFDETKEEYIEIPSDSGITFNEQPKMKALEIAEKTRDAILSGKFDQVRINLPNGDMVGHTGDIEATVVACKAADEAVKIVLDAVEQVGGIYLVTADHGNAEDMVKRNKSGQPALDKSGSIQILTSHTLQPVPVAIGGPGLHPGVKFRSDINTPGLANVAATVMNLHGFQAPDDYETTLIEVAD | 11 | 5 | 1 | 0 |
| NTGA 10: Phl p wild type sequence, Table 2 (protein, Phleum Pratense) MVFSVTKKDTKPFDGQKPGTSGLRKKVTVFQQPHYLANFVQSTFNALPADQVKGATIVVSGDGRYFSKDAVQIITKMAAANGVRRVWVGQDSLLSTPAVSAIIRERIAADGSKATGAFILTASHNPGGPTEDFGIKYNMGNGGPAPESVTDKIFSNTTTITEYLIAEDLPDVDISALGVTTFTGPEGPFDVDVFDSATDYIKLMKTIFDFESIKKLLASPKFSFCFDGLHGVAGAYAKRMFVDELGASESSLLNCVPKEDFGGGHPDPNLTYAKELVERMGLGKSSSNVEPPEFGAAADGDADRNMVLGKRFFVTPSDSVAIIAANAVQSIPYFASGLKGVARSMPTSAALDVVAKNLNLKFFEVPTGWKFFGNLMDAGMCSVCGEESFGTGSDHIREKDGIWAVLAWLSIIAYKNKDNLGGDKLVSVEDIVLQHWATYGRHYYTRYDYENVDAEAAKELMANLVKMQSALSDVNKLIKEIQPDVAEVVSADEFEYKDPVDGSVSKHQGIRYLFGDGSRLVFRLSGTGSVGATIRIYIEQYEKDSSKTGRESSDALSPLVDVALKLSKIKEYTGRSAPTVIT | 10 | 3 | 0 | 0 |
| NTGA 9: Phl p wild type sequence, Table 2 (protein, Phleum Pratense) MAQLQETYACSPATERGRGILLGGDAKTDTIVYCAGRTVFFRRLDAPLDAWTYTEHAYPTTVARISPNGEWVASADVSGCVRVWGRNGDRALKAEFRPISGRVDDLRWSPDGLRIVVSGDGKGKSLVRAFMWDSGSTVGDFDGHSKRVLSCDFKPTRPFRIVTCGEDFLANYYEGPPFKFKHSIRDHSNFVNCIRYSPDGSKFITVSSDKRGLIYDGKTGDKIGELSSEDSHTGSIYAVSWSADSKQVLTVSADKTAKVWDIMEDASGKVNRTLVCTGIGGVDDMLVGCLWQNDHLVTVSLGGTFNVFSASNPDKEPVSFAGHLKTVSSLTYFPQSNPRTMLSTSYDGVIIRWIQGVGYGGRLIRKNNTQIKCFVAAEEELITSGYDNMVFRIPLNGDQCGDAESVDVGGQPNALNIAVQQPEFALITTDSAIVLLHKSTVTSTTKVSYTITSSAVSPDGTEAIVGAQDGKLRIYSISGDTLTEEAVLERHRGAITSIHYSPDVSMFASADANREAVAWDRATREIKLKNMLFHTARINCLAWSPDSRLVATGSIDTCAIIYDVDKPASSRITIKGAHLGGVHGLTFADNDTLVTAGEDACVRVWKLV | 9 | 3 | 1 | 0 |
| NTGA 4: Phl p wild type sequence, Table 2 (protein, Phleum Pratense) YIKLMKTIFDFESIKKLLASPKFSFCFDGLHGVAGAYAKRMFVDELGASESSLLNCVPKEDFGGGHPDPNLTYAKELVERMGLGKSSSNVEPPEFGAAADGDADRNMVLGKRFFVTPSDSVAIIAANAVQSIPYFASGLKGVARSMPTSAALDVVAKNLNLKFFEVPTGWKFFGNLMDAGMCSVCGEESFGTGSDHIREKDGIWAVLAWLSIIAYKNKDNLGGDKLVSVEDIVLQHWATYGRHYYTRYDYENVDAEAAKELMANLVKMQSALSDVNKLIKEIQPDVAEVVSADEFEYKDPVDGSVSKHQGIRYLFGDGSRLVFRLSGTGSVGATIRIYIEQYEKDSSKTGRESSDALSPLVDVALKLSKIKEYTGRSAPTVIT | 4 | 4 | 3 | 0 |
